According to patent publication US20260146069A1 (PAPYRUS THERAPEUTICS, published 2026):

Molecular target: the molecule itself
Test: Western blot (8% SDS-PAGE, goat anti-human OPCML) of Ni-NTA purified protein; self-association
Procedure: Samples were separated on an 8% SDS-PAGE gel, transferred to a nitrocellulose or polyvinylidene fluoride (PVDF) membrane (Millipore Corporation), blocked, and incubated with polyclonal goat anti-human OBCAM (OPCML; R&D Systems) as a primary antibody, diluted 1:1000, at 4° C. overnight. After washing, the membrane was incubated with HRP-labeled anti-goat as the secondary antibody, diluted 1:5000. After final washings, proteins were detected using Immobilon Western Chemiluminescent HRP substrate system (Millipore) and GE Healthcare Amersham “Hyperfilm” ECL film with a Kodak SRX2000 (Rochester, NY, USA) developer machine.

B1: rOPCML-Fc protein (PYTX-004 construct) (Fc fusion)
chain: ATFPKAMDNVTVRQGESATLRCTIDDRVTRVAWLNRSTILYAGNDKWSIDPRVIILVNTPTQYSIMIQNVDVYDEGPYTCSVQTDNHPKTSRVHLIVQVPPQIMNISSDITVNEGSSVTLLCLAIGRPEPTVTWRHLSVKEGQGFVSEDEYLEISDIKRDQSGEYECSALNDVAAPDVRKVKITVNYPPYISKAKNTGVSVGQKGILSCEASAVPMAEFQWFKEETRLATGLDGMRIENKGRMSTLTFFNVSEKDYGNYTCVATNKLGNTNASITLYGPGGGGLEVLFQGPGGSTKGPSVFLFPPKPKDTLMISRTPEVTCVVVDVSHEDPEVKFNWYVDGVEVHNAKTKPREEQYNSTYRVVSVLTVLHQDWLNGKEYKCKVSNKALPAPIEKTISKAKGQPREPQVYTLPPSRDELTKNQVSLTCLVKGFYPSDIAVEWESNGQPENNYKTTPPVLDSDGSFFLYSKLTVDKSRWQQGNVFSCSVMHEALHNHYTQKSLSLSPGKRTGHHHHHH
notes: Expressed in HEK-293 clone 18G9 and purified on Ni-NTA; After purification it reports a 160 kDa form and an 80 kDa monomer; also called rOPCML-Fc PYTX-004; OPCML-Fc PYTX-004
- binding result: binds
